The values below come from US20260234255A1 (Genmab, published 2026).

Positions count from the first letter of the chain named. Numbers in names are those of the source.

In assay [1] the target is T1, human CD30 (human, UniProt P28908 19-595).
T1 construct: also called huCD30; TNFRSF8
T1 sequence: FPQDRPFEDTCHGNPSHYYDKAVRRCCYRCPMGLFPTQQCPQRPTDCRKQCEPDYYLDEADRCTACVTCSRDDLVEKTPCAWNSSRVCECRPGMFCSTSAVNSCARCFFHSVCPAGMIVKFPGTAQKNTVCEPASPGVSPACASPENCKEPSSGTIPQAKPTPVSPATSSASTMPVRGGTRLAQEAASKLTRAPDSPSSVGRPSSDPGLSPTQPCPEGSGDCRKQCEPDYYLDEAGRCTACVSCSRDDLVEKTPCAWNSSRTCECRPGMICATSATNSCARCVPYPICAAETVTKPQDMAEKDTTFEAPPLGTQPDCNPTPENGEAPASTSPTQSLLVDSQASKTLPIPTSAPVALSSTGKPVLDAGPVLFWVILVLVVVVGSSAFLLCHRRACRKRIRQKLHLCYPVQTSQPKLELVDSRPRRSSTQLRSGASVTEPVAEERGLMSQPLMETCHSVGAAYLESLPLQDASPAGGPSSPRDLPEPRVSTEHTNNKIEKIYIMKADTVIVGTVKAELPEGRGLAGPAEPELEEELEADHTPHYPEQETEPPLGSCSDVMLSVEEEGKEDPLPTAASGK
In words: flow cytometry, HDLM-2 cells. The gist of the method:
(§1)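 CD3×CD30 bispecific antibodies, 3-fold serial dilutions from 0.0046 to 10 μg/mL, incubated with 3×10⁴ SU-DHL-1 (ALCL) or HDLM-2 (HL) cells for 30 min at 4 °C, then secondary antibody 30 min at 4 °C. Live cells gated by FSC/SSC and TO-PRO-3 exclusion; binding curves fitted by four-parameter sigmoidal regression.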
On the technique in general: Flow cytometry measures light scatter and fluorescence of single cells or particles in a stream.

Assay [2] concerns the target T1, human CD30. Kind of assay: flow cytometry, SU-DHL-1 cells. The procedure, abridged: as §1
Assay [3] deals with T2, rhesus monkey (Macaca mulatta) CD30 (rhesus monkey, UniProt P28908 19-595 (human entry)).
T2 construct: also called mmCD30
T2 chain: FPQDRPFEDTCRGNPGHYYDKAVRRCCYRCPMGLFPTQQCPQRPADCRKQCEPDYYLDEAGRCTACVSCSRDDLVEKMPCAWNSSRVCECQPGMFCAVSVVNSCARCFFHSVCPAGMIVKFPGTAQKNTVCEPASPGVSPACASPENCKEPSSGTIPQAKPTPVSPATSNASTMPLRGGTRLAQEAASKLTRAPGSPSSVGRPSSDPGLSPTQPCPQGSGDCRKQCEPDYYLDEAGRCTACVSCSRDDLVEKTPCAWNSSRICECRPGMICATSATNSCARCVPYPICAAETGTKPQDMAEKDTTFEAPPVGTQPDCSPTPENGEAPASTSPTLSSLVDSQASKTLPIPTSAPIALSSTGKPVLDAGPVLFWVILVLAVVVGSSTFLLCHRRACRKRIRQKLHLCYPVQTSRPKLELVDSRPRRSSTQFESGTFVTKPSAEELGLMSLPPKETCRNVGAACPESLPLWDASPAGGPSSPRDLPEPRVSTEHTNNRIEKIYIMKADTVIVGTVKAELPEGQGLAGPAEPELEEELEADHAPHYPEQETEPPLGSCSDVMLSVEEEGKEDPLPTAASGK
Kind of assay: flow cytometry, Expi293F cells transfected with rhesus monkey CD30.

The target of assay [4] is T1, human CD30. Kind of assay: flow cytometry, Expi293F cells transfected with human CD30. Here is the method: (§2) Cells (3×10⁴ cells/well) were incubated in polystyrene 96-well round-bottom plates (Greiner bio-one, cat. no. 650180) with serial dilutions of antibodies (ranging from 0.005 to 10 μg/mL in 3-fold dilution steps) in 100 μL staining buffer at 4° C. for 30 min. Experiments were performed in technical duplicate. After washing twice in staining buffer, cells were incubated in 50 μL secondary antibody at 4° C. for 30 min. As a secondary antibody, R-PE-conjugated goat-anti-human IgG (Jackson ImmunoResearch, UK; cat. no. 109⁻¹¹⁶-098) diluted 1:400 in staining buffer was used. Cells were washed twice in staining buffer, resuspended in 30 μL staining buffer containing 0.4% EDTA and analyzed on an iQue Screener (Intellicyt Corporation, USA). Binding curves were analyzed using non-linear regression (sigmoidal dose-response with variable slope) using GraphPad Prism V9.0.0 software (GraphPad Software, San Diego, CA, USA).

Assay [5] concerns the target T1, human CD30. Described as above.
Description: Data are presented as mean fluorescence intensity (MFI) values as determined by flow cytometry of two technical replicates. […] Data are presented as mean fluorescence intensity (MFI) values as determined by flow cytometry of one representative experiment.
Binding of bispecific CD3×CD30 antibodies and monospecific, bivalent CD30 antibodies to the plasma membrane of Expi293 cells transiently transfected with human CD30 or cynomolgus monkey CD30 was analyzed by flow cytometry.
Assay [6] concerns the target T3, cynomolgus monkey (Macaca fascicularis) CD30 (cynomolgus monkey, UniProt P28908 19-595 (human entry)).
T3 construct: also called mfCD30
T3 chain: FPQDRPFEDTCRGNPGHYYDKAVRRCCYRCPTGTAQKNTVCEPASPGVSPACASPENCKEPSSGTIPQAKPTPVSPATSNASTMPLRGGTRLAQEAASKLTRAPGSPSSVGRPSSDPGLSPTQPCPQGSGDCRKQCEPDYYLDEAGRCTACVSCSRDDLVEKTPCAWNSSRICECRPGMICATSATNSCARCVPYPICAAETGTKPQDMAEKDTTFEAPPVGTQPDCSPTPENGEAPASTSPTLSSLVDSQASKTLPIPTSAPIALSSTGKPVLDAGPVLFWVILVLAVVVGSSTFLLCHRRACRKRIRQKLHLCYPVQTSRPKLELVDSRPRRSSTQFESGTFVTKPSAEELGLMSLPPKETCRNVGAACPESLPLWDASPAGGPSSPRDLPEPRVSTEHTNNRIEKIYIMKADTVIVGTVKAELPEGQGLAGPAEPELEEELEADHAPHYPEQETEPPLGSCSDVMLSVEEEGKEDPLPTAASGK
Kind of assay: flow cytometry, Expi293F cells transfected with cynomolgus monkey CD30 (mfCD30). Here is the method:
as §2

The target in assay [7] is T1, human CD30. In words: flow cytometry, L-540 cells.
The target of assay [8] is T1, human CD30. Kind of assay: flow cytometry, SUP-M2 cells.
Assay [9] addresses T1, human CD30. In words: flow cytometry, HH cells. Here is the method: Cells (3×10⁴ cells/well) were incubated in polystyrene 96-well round-bottom plates (Greiner bio-one, cat. no. 650180) with serial dilutions of antibodies (range 0.0046 to 10 μg/mL in 3-fold dilution steps) in 50 μL staining buffer at 4° C. for 30 min. After washing twice in staining buffer, cells were incubated with 50 μL secondary antibody at 4° C. for 30 min. […] Next, cells were washed twice in staining buffer, resuspended in 100 μL staining buffer supplemented with TO-PRO-3 iodide (Thermo Fisher Scientific; cat. no. T3605; 1:8000 dilution) and analyzed on a FACSCelesta flow cytometer (BD Biosciences, USA). Live cells were gated based on FSC/SSC and absence of TOPRO-3 staining. Binding curves were analyzed by non-linear regression of log-transformed data (sigmoidal dose-response with variable slope, four parameters) using GraphPad Prism V7.02 software (GraphPad Software, San Diego, CA, USA).

Assay [10] concerns the target T1, human CD30. In words: flow cytometry, KM-H2 cells.
The target of assay [11] is T1, human CD30. In words: flow cytometry, JVM-2 cells.
The target of assay [12] is T1, human CD30. Kind of assay: flow cytometry, L-82 cells.
For assay [13], the target named is T1, human CD30. Kind of assay: flow cytometry, NCEB-1 cells.
Assay [14] has as its target T1, human CD30. Kind of assay: flow cytometry, SR-786 cells.
Assay [15] concerns the target T1, human CD30. Kind of assay: flow cytometry, DL-40 cells.
Assay [16] has as its target T1, human CD30. In words: flow cytometry, L-1236 cells.

B1: IgG1-CD30-T408-FEAR (antibody, V domains shown)
VH: QVQLQQPGAELVRPGASVKLSCKASGYTFTSYWINWVKQRPGQGLEWIGNIYPSDSYSNYNQKFKDKATLTVDKSSSTAYMQLSSPTSEDSAVYYCTLGSYWGQGTLVTVSA
VL: not shown
notes: Monospecific, bivalent parental antibody
As usually defined, the EC50 (read off the curve) is the concentration needed to bring the measured effect to its halfway point. Take B1: the concentration for a half-maximal effect (EC50 (read off the curve)) in assay [1] is approximately 1 µg/mL; in assay [2], approximately 0.6 µg/mL; in assay [3] it was approximately 0.4 µg/mL; in [4], approximately 0.2 µg/mL.

B2: bsG1-huCD3-H101G-FEALxCD30-MDX060-FEAR (bispecific antibody, human IgG1, kappa, lambda)
heavy 1: not shown
light 1: not shown
heavy 2: QVQLQQWGAGLLKPSETLSLTCAVYGGSFSAYYWSWIRQPPGKGLEWIGDINHGGGTNYNPSLKSRVTISVDTSKNQFSLKLNSVTAADTAVYYCASLTAYWGQGSLVTVSSASTKGPSVFPLAPSSKSTSGGTAALGCLVKDYFPEPVTVSWNSGALTSGVHTFPAVLQSSGLYSLSSVVTVPSSSLGTQTYICNVNHKPSNTKVDKRVEPKSCDKTHTCPPCPAPEFEGGPSVFLFPPKPKDTLMISRTPEVTCVVVAVSHEDPEVKFNWYVDGVEVHNAKTKPREEQYNSTYRVVSVLTVLHQDWLNGKEYKCKVSNKALPAPIEKTISKAKGQPREPQVYTLPPSREEMTKNQVSLTCLVKGFYPSDIAVEWESNGQPENNYKTTPPVLDSDGSFFLYSRLTVDKSRWQQGNVFSCSVMHEALHNHYTQKSLSLSPG
light 2: DIQMTQSPTSLSASVGDRVTITCRASQGISSWLTWYQQKPEKAPKSLIYAASSLQSGVPSRFSGSGSGTDFTLTISSLQPEDFATYYCQQYDSYPITFGQGTRLEIKRTVAAPSVFIFPPSDEQLKSGTASVVCLLNNFYPREAKVQWKVDNALQSGNSQESVTEQDSKDSTYSLSSTLTLSKADYEKHKVYACEVTHQGLSSPVTKSFNRGEC
notes: Variant of m7 whose CD3 arm carries H101G
As to B2, the binding result in [5] and in assay [6] was “binds” each time.

B3: bsG1-b12-FEALxCD30-MDX060-FERR (bispecific antibody, human IgG1, kappa)
heavy 1: QVQLVQSGAEVKKPGASVKVSCQASGYRFSNFVIHWVRQAPGQRFEWMGWINPYNGNKEFSAKFQDRVTFTADTSANTAYMELRSLRSADTAVYYCARVGPYSWDDSPQDNYYMDVWGKGTTVIVSSASTKGPSVFPLAPSSKSTSGGTAALGCLVKDYFPEPVTVSWNSGALTSGVHTFPAVLQSSGLYSLSSVVTVPSSSLGTQTYICNVNHKPSNTKVDKRVEPKSCDKTHTCPPCPAPEFEGGPSVFLFPPKPKDTLMISRTPEVTCVVVAVSHEDPEVKFNWYVDGVEVHNAKTKPREEQYNSTYRVVSVLTVLHQDWLNGKEYKCKVSNKALPAPIEKTISKAKGQPREPQVYTLPPSREEMTKNQVSLTCLVKGFYPSDIAVEWESNGQPENNYKTTPPVLDSDGSFLLYSKLTVDKSRWQQGNVFSCSVMHEALHNHYTQKSLSLSPG
light 1: EIVLTQSPGTLSLSPGERATFSCRSSHSIRSRRVAWYQHKPGQAPRLVIHGVSNRASGISDRFSGSGSGTDFTLTITRVEPEDFALYYCQVYGASSYTFGQGTKLERKRTVAAPSVFIFPPSDEQLKSGTASVVCLLNNFYPREAKVQWKVDNALQSGNSQESVTEQDSKDSTYSLSSTLTLSKADYEKHKVYACEVTHQGLSSPVTKSFNRGEC
heavy 2: B2 heavy 2 with G231R, A260D
light 2: B2 light 2
notes: Monovalent CD30 control antibody
As to B3, the half-maximal effective concentration (EC50 (read off the curve)) was approximately 0.5 µg/mL in assay [7]; approximately 0.2 µg/mL in assay [8]; approximately 0.4 µg/mL in assay [9]; approximately 0.1 µg/mL in assay [10]; approximately 0.1 µg/mL in assay [11]; approximately 0.2 µg/mL in [12]. The half-maximal effective concentration (EC50 (read off the curve)) was approximately 0.2 µg/mL in assay [13], approximately 0.3 µg/mL in assay [14], approximately 0.3 µg/mL in assay [15] and approximately 0.2 µg/mL in assay [16].
